In US20150050309A1:

B1: urtica diotica (UDA) lectin (protein, UniProt P11218 24-112, looked up)
chain: QRCGSQGGGGTCPALWCCSIWGWCGDSEPYCGRTCENKCWSGERSDHRCGAAVGNPPCGQDRCCSVHGWCGGGNDYCSGSKCQYRCSSS
B2: galanthus nivalis lectin (protein, UniProt P30617 24-128, looked up)
chain: DNILYSGETLSTGEFLNYGSFVFIMQEDCNLVLYDVDKPIWATNTGGLSRSCFLSMQTDGNLVVYNPSNKPIWASNTGGQNGNYVCILQKDRNVVIYGTDRWATG

How the values were obtained:
Assay in all cases: cell-based or functional assay
[1] = biological target: HIV Env of primary isolate 6101 (HIV)
[2] = biological target: HIV Env of primary isolate DU422 (HIV)
[3] = biological target: HIV Env of primary isolate TV-1 (HIV)
[4] = biological target: HIV Env of primary isolate BG1168 (HIV)
[5] = biological target: HIV Env of primary isolate SF162 (HIV)
[6] = biological target: HIV Env of primary isolate DU123 (HIV)

Row | Binder | neutralization titer of HIV primary isolate [1] [titer] | neutralization titer of HIV primary isolate [2] [titer] | neutralization titer of HIV primary isolate [3] [titer] | neutralization titer of HIV primary isolate [4] [titer] | neutralization titer of HIV primary isolate [5] [titer] | neutralization titer of HIV primary isolate [6] [titer] | neutralization titer of HIV primary isolate (lectin at 400 ug/ml) [1] [titer] | neutralization titer of HIV primary isolate (lectin at 400 ug/ml) [2] [titer] | neutralization titer of HIV primary isolate (lectin at 400 ug/ml) [3] [titer] | neutralization titer of HIV primary isolate (lectin at 400 ug/ml) [4] [titer] | neutralization titer of HIV primary isolate (lectin at 400 ug/ml) [5] [titer] | neutralization titer of HIV primary isolate (lectin at 400 ug/ml) [6] [titer]
1 | B1 | 428 | 468 | 600 | 190 | 467 | 1580 |  |  |  |  |  | 
2 | B2 |  |  |  |  |  |  | 724 | > 43700 | > 43700 | < 20 | 22400 | > 43700
